Data on five molecules can be found in patent publication US11497796B2, “Agents directed against a cis RGMa/neogenin interaction or lipid rafts and use of the same in methods of treatment” (UNIVERSITY HEALTH NETWORK, priority 2013, dated 2022).

For one assay, the system named is photoreceptor cells. The assay is described as follows: Photoreceptor survival in rd1 mice (retinitis pigmentosa model). The format is in vivo, mouse. As for the experimental part:
The rd1 mouse model is a model for human RP and carried a loss-of-function mutation in the gene encoding for the β-subunit of the rod photoreceptor cGMP phosphodiesterase-6.2. This loss-of-function mutation led to an accumulation of cGMP, which caused photoreceptor cell death.
In these studies, intraocular injection of the 4Ig (2 μg/μl) peptide at P9 and P15 was performed and animals were sacrificed at P21 to examine cell survival. […] Injection of 4Ig increased outer nuclear layer (ONL) thickness to about 6 cells (FIG. 19). This measurement was the average thickness of the ONL.
As described above, cholesterol depletion removes lipid rafts. Specifically, mice were treated with daily […] (IP) injections of MβCD from P9 to P21.
To examine the effect of reducing cholesterol synthesis on cell survival, AY-9944 was examined in rd1 mice (FIGS. 20 and 21). Rd1 mice were treated using two intra-peritoneal injections of AY-9944, at P9 and P15 and sacrificed at P21.

Assay [1] relates to retinal explants (retinal ganglion cell neurites). The assay is described as follows: Retinal explant neurite outgrowth on laminin or myelin. The format is cell-based, chick. As to conditions: AY-9944 1 μM, BM15.766 4 μM, 18 hrs. As for the experimental part:
(§1) Retinal explants outgrowth assay. Poly-L-Lysine (PLL; SIGMA; 10 μg/ml) coated glass coverslips were treated with Laminin (10 μg/ml; Invitrogen) and RGMa proteins (5 μg) and incubated for 3 hrs at room temperature. PLL treated coverslips were coated with myelin overnight (6 μg/cm2), followed by coating with Laminin. Temporal retinal explants were cultured on either myelin or protein-coated surfaces in DMEM F-12 media (2% chick serum, 10% FBS) for 18 h. To disrupt rafts, explants were pre-treated with 10 mM MβCD for 12 min or 2 U/ml CO for 1 h at 37° C., washed, and cultured on protein coated coverslips. Explants were then fixed with 4% PFA and stained with Alexa488-fluor-phalloidin (1:50; Molecular Probes). Fiber length was quantified using Image Pro 5.0.
Specifically, retinal explants were prepared from E7 chick embryos, cultured on coverslips coated with on Laminin or myelin, and treated with control (DMSO) or AY-9944 (1 μM) or BM15.766 (4 μM), two inhibitors of cholesterol biosynthesis. After 18 hrs in culture, explants were fixed with 4% PFA and stained with Alexa488-Phalloidin. Neurites were measured using Cellsens software. Retinal explants were cultured on laminin (control) or myelin (the inhibitory compound of the CNS). On laminin, axon growth was normal compared to myelin because myelin inhibited outgrowth.

Assay [2] has as its target T1, 6FNIII-domain of Neogenin (His-6FNIII) (Gallus gallus, UniProt Q90610).
T1 construct: His; made in house
T1 sequence (Q90610 429-1036): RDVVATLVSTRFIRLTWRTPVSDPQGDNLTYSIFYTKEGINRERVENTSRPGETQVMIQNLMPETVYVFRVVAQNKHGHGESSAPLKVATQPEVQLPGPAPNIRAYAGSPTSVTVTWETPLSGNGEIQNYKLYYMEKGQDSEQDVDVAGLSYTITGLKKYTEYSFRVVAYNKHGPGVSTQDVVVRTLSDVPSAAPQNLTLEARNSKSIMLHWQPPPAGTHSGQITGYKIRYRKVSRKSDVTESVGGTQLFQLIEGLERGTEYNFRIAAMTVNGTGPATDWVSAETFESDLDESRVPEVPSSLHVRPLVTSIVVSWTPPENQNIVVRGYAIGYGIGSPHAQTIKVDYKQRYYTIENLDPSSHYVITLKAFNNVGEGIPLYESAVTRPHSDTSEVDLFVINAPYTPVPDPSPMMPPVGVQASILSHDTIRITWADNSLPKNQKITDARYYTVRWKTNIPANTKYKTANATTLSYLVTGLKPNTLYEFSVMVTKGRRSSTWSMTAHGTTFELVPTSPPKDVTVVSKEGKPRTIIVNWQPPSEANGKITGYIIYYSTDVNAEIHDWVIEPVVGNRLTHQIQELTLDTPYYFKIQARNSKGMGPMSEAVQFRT
The assay is described as follows: Pull-down assay with peptide-coated beads. Type of assay: binding. As to conditions: Western blot with anti-His. The method, then: (A) RGMa proteins were incubated on plates coated with 4Ig- or 6FNIII-AP. One C- and one N-RGMa domain (N-RGMa^77-113) interacted with 6FNIII. One N-RGMa domain (N-Raft) interacted with 4Ig. (B) Supernatants (Sup) from cells expressing His-6FNIII or His-4Ig, were pulled down (IP) with beads coated with N-Raft, N-RGMa^50-99, and N-inh. Western Blot was then performed with an anti-His antibody to reveal whether or not His-6FNIII or His-4Ig interacted with the coated beads. […] Data are average±SEM (n=3 independent experiments), *p<0.0001. Scale bar, 100 μm. (E) Chick brains were injected with control peptide (Ctrl; N-RGMa^50-99), 4Ig, N-Raft, or Noggin 1 day before preparing membrane fractionations. In control experiments, Neogenin localized to the Flotillin/RGMa-containing lipid raft fraction (as shown in solid lined boxes). 4Ig, N-Raft, or Noggin shifted Neogenin to heavy fractions.
Proteins were coupled to activated CNBr Sepharose beads (Pharmacia) according to supplier instructions. Supernatants from transfected cells were added to coupled beads for 2 h at room temperature (RT). Beads were then washed 6× with PBS plus 0.02% Tween 20, and SDS loading buffer was added. Samples were boiled and subjected to Western blotting.
On the technique in general: In western blotting, separated proteins are transferred to a membrane and probed.

The subject of assay [3] is temporal retinal explants (axonal outgrowth). The assay is described as follows: Retinal explants outgrowth assay. Type of assay: cell-based, chick. As to conditions: for effect on axonal outgrowth when provided as growth substrate (in trans): protein as substrate. The method, then:
Poly-L-Lysine (SIGMA; 10 μg/ml) coated glass coverslips were treated with Laminin (Invitrogen; 10 μg/ml) and RGMa proteins (5 μg/ml) and incubated for 3 hours at room temperature. Temporal retinal explants were cultured on protein-coated surfaces for 18 hours. To disrupt the lipid rafts, explants were pretreated with 10 mM methyl-β-cyclodextrin (MβCD) for 12 minutes or 2 U/ml cholesterol oxidase (CO) for 1 hour at 37° C. Explants were then fixed with 4% paraformaldehyde (PFA) and stained with Alexa488-phalloidin. Fiber length was quantified using Image Pro 5.0. For immunolocalization, explants were treated with Cholera Toxin B-FITC (C1655; Sigma; 10 mg/mL) and patched, fixed and stained with Neogenin antibody. Retinal ganglion cells (RGCs) were electroporated with RGMa-His and cultured for 18 hours. The cells were fixed and stained with Neogenin and His-tag antibodies.
as §1
Statistical analysis of retinal outgrowth assays was performed using Student's two-tail t-test using Excel (Microsoft). Results were expressed as the mean±SEM (n=at least 3 independent experiments; 2 duplicates per independent experiment, >10 explants per duplicate).

Assay [4] deals with T2, 6FNIII-domain of Neogenin (Gallus gallus, UniProt Q90610).
T2 construct: made in house
T2 sequence (Q90610 429-1036): T1 sequence (Q90610 429-1036)
The assay is described as follows: ELISA / AP binding assay of RGMa peptides to Neogenin domains. As to conditions: Neogenin domains fused to AP. The text has this:
(§2) Specifically, the 4Ig-domain and 6FNIII-domain of Neogenin were each fused to alkaline phosphatase (AP). The 4Ig-domain and 6FNIII-domain of Neogenin were found in the extracellular portion of Neogenin. Accession No. AAC59662 (SEQ ID NO:1) was the amino acid sequence of Neogenin. The 4Ig-domain was amino acids 1 to 383 of Accession No. AAC59662 (SEQ ID NO:1). The 6FNIII-domain was amino acids 429 to 1036 of Accession No. AAC59662 (SEQ ID NO:1).
(§3) The binding of these fusions to various RGMa peptides were analyzed in an ELISA assay (FIG. 2A).
(§4) To determine if distinct N-terminal regions of RGMa bound the 4Ig- and 6FNIII-domains of Neogenin, peptides were generated that spanned the N-terminal region of RGMa. The amino acid sequence of RGMa was Accession No. NP_989868.1 (SEQ ID NO:6). These peptides were a peptide spanning amino acids 28-73 of RGMa (also referred to herein as “N-Raft”) and a peptide spanning amino acids 77-113 of RGMa (also referred to herein as “N-inh”). […] In a complementary experiment, in which the N-Raft and N-inh peptides of RGMa were fused with AP instead of the 4Ig- and 6FNIII-domains of Neogenin, N-Raft bound to the 4Ig-domain and not the 6FNIII-domain while N-inh bound to the 6FNIII-domain and not the 4Ig-domain (FIG. 9). Additionally, N-inh and N-Raft coated beads pulled down 6FNIII-domain and 4Ig-domain, respectively, which was consistent with the ELISA results described above (FIG. 2B).
(§5) The assay was conducted in a 96-well microtiter plate (Corning Incorporated). The wells were coated with 100 μl (10 μg/mL) of Poly-L-Lysine at 4° C. overnight. Wells were then washed three times with 100 μl of PB ST (+0.02% Tween).
(§6) 50 μl (2.5 μg/mL) of His-tagged: Full-length Neogenin; the 4Ig-domain of Neogenin; and 6FNIII-domain of Neogenin were coated onto each well for 1 hour at 37° C. Following three washes of 100 μl PBST, each well was then blocked with 300 μl of 3% BSA in PBST for 1 hour at 37° C.
(§7) 50 μl (1.0 μg/mL) AP-tagged: N-RGMa (28-73); N-RGMa (28-54); N-RGMa (40-62); N-RGMa (54-73); N-RGMa (54-62) in 1% BSA+PBST was then added to each well and incubated at 37° C. for 1 hour. Each well was washed thoroughly three times with 100 μl PBST followed by subsequent equilibration of each well with Alkaline Phosphatase (AP) developing buffer (100 mM NaHCO3, 1 mM MgCl2). The reaction was developed using AP developing buffer supplemented with, p-nitrophenyl phosphate (pNPP) (Sigma-Aldrich) and allowed to develop until color development. The reaction was stopped with the addition of 50 μl (0.1M) NaOH. The absorbance of each reaction was measured using a microplate autoreader (BIO-TEK Instruments Inc.) at 405 nanometers (nm) wavelength.

For another assay, the target named is T3, 4Ig-domain of Neogenin (Gallus gallus, UniProt Q90610).
T3 construct: made in house
T3 sequence (Q90610 1-383): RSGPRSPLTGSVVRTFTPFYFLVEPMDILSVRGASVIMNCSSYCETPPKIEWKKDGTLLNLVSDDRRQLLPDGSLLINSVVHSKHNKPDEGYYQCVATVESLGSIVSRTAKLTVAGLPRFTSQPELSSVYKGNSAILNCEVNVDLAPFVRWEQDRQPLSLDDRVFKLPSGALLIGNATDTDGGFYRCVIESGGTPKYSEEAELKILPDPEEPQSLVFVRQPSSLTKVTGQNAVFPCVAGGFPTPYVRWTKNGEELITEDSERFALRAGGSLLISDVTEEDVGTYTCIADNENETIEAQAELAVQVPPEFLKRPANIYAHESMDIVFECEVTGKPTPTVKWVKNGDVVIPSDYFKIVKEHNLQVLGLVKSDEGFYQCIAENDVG
The assay is described as above. As to conditions: for interaction with the 4Ig-domain of Neogenin: ELISA, Neogenin domains fused to AP.
Description: as §2, §3, §4, §5, §6, §7

Take `Clc1ccccc1CNCC1CCC(CNCc2ccccc2Cl)CC1` (stereo not shown) [AY-9944]: in the assay with photoreceptor cells (injected at P9, P21), the “number of rods within the Outer Nuclear Layer (anti-Rhodopsin)” value was “dramatic increase in the number of rods”. Besides, the photoreceptor survival entry with photoreceptor cells (two intra-peritoneal injections at P9 and P15, sacrificed at P21) is “promoted photoreceptor survival”. Further, in assay [1], the outgrowth on laminin result is “did not influence outgrowth on laminin” and the outgrowth on myelin entry is on record as “restored outgrowth on myelin”.

In the case of `O=C(O)c1ccc(CCN2CCN(C/C=C/c3ccc(Cl)cc3)CC2)cc1` [BM15.766], in assay [1], the outgrowth on laminin result is “did not influence outgrowth on laminin” and the outgrowth on myelin entry was “restored outgrowth on myelin”.

Consider “N-inh: peptide spanning amino acids 77-113 of RGMa (GDLAYHSAVHGIDDLMVQHNCSKDGPTSQPRLRTLPP; left off: small tags and cut ends)”, for which the “pull-down of 6FNIII-domain by peptide-coated beads” value in assay [2] is given as “pulled down”. Moreover, the “axonal growth on peptide as substrate” value in assay [3] (RGMa peptide as substrate, controls 238.1±9.3 μm) worked out at 88.1±13.3 μm. Further, the “interaction with the 6FNIII-domain of Neogenin” value in assay [4] is on record as “interacted”.

B1: RGMaΔ: RGMaΔ was full-length RGMa (protein)
chain: CKILKCNSEFWAATSGSHHLGAEETPEFCTALRAYAHCTRRTARTCRGDLAYHSAVHGIDDLMVQHNCSKDGPTSQPRLRTLPPGDSQERSDSPEICHYEKSFHKHSAAPNYTHCGLFGDPHLRTFTDTFQTCKVQGAWPLIDNNYLNVQVTNTPVLPGSSATATSKLTIIFKSFQECVEQKVYQAEMDELPAAFADGSKNGGDKHGANSLKITEKVSGQHIEIQAKYIGTTIVVRQVGRYLTFAVRMPEEVVNAVEDRDSQGLYLCLRGCPLNQQIDFQTFRLAQAAEGRARRKGPSLPAPPEAFTYESATAKCREKLPVEDLYFQSCVFDLLTTGDVNFMLAAYYAFEDVKMLHSNKDKLHLYERTRALAPGN
For the molecule B1, the “effect on axonal outgrowth when provided as growth substrate (in trans)” value in assay [3] is “blocked axon growth”. Further, the “binding to the 4Ig-domain of Neogenin” value in the assay with 4Ig-domain of Neogenin (AP-tagged fragments 1.0 μg/mL on coated His-tagged 4Ig) is on record as “did not bind”. The “interaction with the 4Ig-domain of Neogenin” value with 4Ig-domain of Neogenin is on record as “did not interact”. In addition, the “interaction with the 6FNIII-domain of Neogenin” value in assay [4] is “interacted”.

B2: N-RGMa: N-terminal RGMa isoform of the CNS (protein)
chain: MQPPRERLVVTGRAGWMGMGRGAGRSALGLWPTLAFLLCSFPAAISPCKILKCNSEFWSATSSGSHAPASDDVPEFCAALRTYALCTRRTARTCRGDLAYHSAVHGIEDLMSQHNCSKDGPTSQPRVRTLPPAGDSQERSDSPEICHYEKSFHKHSAAPNYT
modifications: Mouse N-RGMa
notes: N-terminal RGMa isoform of the CNS
On to B2, for which the “effect on axonal outgrowth when provided as growth substrate (in trans)” value in assay [3] is recorded as “blocked axon growth”. In addition, the “interaction with the 4Ig-domain of Neogenin” value with 4Ig-domain of Neogenin was “interacted”. In assay [4], the “interaction with the 6FNIII-domain of Neogenin” value is recorded as “interacted”.
